Here are results for one molecule from patent publication US6369030 (ROCKFELLER UNIVERSITY, dated 2002).

A value given as a limit tells only on which side of the number the result lay.

For test [1], the target named is PCAF histone acetyltransferase (full length, purified recombinant) (UniProt Q92831 1-832, limits assumed). The experiment in a line: cell-based or functional assay.
For test [2], the target named is p300 histone acetyltransferase (full length, purified recombinant) (UniProt Q09472 2-2414, limits assumed). The experiment in a line: cell-based or functional assay.
p300 histone acetyltransferase (full length, purified recombinant), sequence (Q09472 2-2414 limits assumed): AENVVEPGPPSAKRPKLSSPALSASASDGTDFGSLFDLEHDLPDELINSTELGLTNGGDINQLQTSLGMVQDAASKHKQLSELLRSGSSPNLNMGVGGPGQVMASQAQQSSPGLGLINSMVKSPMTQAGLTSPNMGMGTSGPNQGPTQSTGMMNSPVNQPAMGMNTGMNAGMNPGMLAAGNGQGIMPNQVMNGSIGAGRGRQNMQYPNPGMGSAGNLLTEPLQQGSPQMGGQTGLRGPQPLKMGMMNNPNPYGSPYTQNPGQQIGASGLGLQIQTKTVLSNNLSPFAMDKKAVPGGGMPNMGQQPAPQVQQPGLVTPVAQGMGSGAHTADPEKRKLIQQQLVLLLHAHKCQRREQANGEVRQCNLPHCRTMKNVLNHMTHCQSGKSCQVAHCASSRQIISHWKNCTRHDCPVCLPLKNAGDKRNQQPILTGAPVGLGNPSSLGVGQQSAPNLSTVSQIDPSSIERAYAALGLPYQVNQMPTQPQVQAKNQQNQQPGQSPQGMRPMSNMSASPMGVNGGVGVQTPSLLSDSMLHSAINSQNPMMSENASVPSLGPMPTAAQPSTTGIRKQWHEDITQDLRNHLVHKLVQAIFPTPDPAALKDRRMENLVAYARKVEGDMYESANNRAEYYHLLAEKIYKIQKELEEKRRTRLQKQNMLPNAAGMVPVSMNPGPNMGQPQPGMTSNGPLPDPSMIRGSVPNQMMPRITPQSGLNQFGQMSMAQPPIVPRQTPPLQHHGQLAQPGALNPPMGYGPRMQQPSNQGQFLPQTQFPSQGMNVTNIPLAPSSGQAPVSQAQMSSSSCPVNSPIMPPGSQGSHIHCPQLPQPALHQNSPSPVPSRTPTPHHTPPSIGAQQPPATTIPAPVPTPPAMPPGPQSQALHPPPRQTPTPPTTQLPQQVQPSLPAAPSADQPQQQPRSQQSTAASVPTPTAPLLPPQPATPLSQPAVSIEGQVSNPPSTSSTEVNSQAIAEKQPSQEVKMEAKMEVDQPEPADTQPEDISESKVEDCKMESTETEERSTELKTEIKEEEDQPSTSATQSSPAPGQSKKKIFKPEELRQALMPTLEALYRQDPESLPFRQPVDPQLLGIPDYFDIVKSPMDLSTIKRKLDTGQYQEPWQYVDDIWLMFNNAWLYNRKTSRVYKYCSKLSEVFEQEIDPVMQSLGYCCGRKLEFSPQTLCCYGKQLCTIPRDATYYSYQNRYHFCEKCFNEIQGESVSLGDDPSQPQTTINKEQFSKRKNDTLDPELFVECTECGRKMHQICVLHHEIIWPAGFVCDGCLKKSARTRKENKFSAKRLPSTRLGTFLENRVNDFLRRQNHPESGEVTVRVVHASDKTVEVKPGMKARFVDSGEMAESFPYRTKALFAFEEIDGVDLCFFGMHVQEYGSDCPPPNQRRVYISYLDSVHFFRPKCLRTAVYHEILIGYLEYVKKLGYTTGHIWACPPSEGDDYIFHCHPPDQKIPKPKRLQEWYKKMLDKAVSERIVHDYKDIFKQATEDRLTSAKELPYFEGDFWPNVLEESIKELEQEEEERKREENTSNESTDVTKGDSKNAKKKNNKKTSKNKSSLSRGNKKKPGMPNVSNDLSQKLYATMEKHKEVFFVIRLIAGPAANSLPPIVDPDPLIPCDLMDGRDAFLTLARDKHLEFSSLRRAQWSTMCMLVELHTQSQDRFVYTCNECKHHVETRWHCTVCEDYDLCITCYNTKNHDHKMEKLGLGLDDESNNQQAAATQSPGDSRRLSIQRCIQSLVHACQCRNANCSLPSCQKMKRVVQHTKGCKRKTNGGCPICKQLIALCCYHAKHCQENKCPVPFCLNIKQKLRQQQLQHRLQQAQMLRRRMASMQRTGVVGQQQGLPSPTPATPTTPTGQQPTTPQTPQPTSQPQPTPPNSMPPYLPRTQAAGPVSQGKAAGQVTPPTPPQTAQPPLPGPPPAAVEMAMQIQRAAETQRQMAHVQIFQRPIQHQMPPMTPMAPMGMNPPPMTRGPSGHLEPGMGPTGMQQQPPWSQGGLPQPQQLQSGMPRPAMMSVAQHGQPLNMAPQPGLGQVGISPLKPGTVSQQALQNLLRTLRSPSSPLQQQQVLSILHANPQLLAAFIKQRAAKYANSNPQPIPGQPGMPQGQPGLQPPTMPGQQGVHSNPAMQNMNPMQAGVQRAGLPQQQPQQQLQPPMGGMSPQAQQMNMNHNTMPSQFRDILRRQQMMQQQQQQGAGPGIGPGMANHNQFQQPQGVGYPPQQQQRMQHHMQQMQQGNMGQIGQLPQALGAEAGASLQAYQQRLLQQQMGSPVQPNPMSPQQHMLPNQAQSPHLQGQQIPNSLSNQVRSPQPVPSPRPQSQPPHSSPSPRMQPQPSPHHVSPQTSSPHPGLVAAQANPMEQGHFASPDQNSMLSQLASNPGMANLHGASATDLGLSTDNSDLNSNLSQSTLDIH

PCAF histone acetyltransferase (full length, purified recombinant), sequence (Q92831 whole entry): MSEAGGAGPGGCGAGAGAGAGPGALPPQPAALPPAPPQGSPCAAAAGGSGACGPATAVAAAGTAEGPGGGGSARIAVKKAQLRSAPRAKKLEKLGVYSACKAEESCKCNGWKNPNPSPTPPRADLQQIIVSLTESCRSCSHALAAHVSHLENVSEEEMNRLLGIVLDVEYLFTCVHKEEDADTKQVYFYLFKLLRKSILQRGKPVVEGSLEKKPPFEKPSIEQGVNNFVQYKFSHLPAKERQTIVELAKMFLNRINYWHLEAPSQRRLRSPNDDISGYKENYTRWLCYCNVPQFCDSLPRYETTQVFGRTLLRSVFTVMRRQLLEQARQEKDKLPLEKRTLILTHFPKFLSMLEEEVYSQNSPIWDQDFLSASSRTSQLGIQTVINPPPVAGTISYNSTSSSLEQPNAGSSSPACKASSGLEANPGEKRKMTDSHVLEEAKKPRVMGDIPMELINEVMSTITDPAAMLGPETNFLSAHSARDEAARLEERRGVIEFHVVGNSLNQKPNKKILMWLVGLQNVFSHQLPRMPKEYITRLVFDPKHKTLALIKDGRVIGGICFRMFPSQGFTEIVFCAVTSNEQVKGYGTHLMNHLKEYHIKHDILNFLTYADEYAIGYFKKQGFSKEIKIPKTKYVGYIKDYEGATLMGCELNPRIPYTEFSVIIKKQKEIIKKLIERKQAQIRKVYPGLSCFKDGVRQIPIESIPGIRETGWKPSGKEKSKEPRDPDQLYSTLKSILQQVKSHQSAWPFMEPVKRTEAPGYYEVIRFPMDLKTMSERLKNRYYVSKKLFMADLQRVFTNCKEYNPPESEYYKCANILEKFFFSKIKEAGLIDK

B1: H3-CoA-7 (peptide)
peptide: Ac-GGKAPRK-NH2
modifications: also: further groups not given here
For the molecule B1, in test [1], the “IC50 with PCAF (µM), HAT activity inhibition, mixed histones” value was greater than 20 µM. Besides, the “IC50 with p300 (µM), HAT activity inhibition, mixed histones” value in test [2] is greater than 30 µM.
